These results are taken from patent US20260250398A1.

This experiment deals with FZD1/2/4/5/7/8. Nature of the experiment: cell-based or functional assay.

B1: ANT-1 (LRP Diabody-Fc-FZD Fab; paratopes 2540, 2542; 5016) (bispecific antibody)
heavy 1: MNLLLILTFVAAAVAEFEVQLVESGGGLVQPGGSLRLSCAASGFNISSYYIHWVRQAPGKGLEWVASIYSSYGYTSYADSVKGRFTISADTSKNTAYLQMNSLRAEDTAVYYCARTVRGSKKPYFSGWAMDYWGQGTLVTVSSGGGGSDIQMTQSPSSLSASVGDRVTITCRASQSVSSAVAWYQQKPGKAPKLLIYSASSLYSGVPSRFSGSRSGTDFTLTISSLQPEDFATYYCQQYYFLITFGQGTKVEIKLEDKTHTKVEPKSSDKTHNCPPCPAPELLGGPSVFLFPPKPKDTLMISRTPEVTCVVVDVSHEDPEVKFNWYVDGVEVHNAKTKPREEQYNSTYRVVSVLTVLHQDWLNGKEYKCKVSNKALPAPIEKTISKAKGQPREPQVYTLPPIRELMTSNQVSLSCAVKGFYPSDIAVEWESNGQPENNYKTTPPVLDSDGSFFLVSKLTVDKSRWQQGNVFSCSVMHEALHNHYTQKSLSLSPGKSGSETPGTSESATPESGGGEVQLVESGGGLVQPGGSLRLSCAASGFNIHSSSIHWVRQAPGKGLEWVAATYSSFGSITYADSVKGRFTISADTSKNTAYLQMNSLRAEDTAVYYCARYHHPFGYALDYWGQGTLVTVSSASTKGPSVFPLAPSSKSTSGGTAALGCLVKDYFPEPVTVSWNSGALTSGVHTFPAVLQSSGLYSLSSVVTVPSSSLGTQTYICNVNHKPSNTKVDKKVEPKSCDKTHT
heavy 2: MNLLLILTFVAAAVAEFEVQLVESGGGLVQPGGSLRLSCAASGFNISYSSIHWVRQAPGKGLEWVASISPYYGYTYYADSVKGRFTISADTSKNTAYLQMNSLRAEDTAVYYCARSSYFPWFSAMDYWGQGTLVTVSSGGGGSDIQMTQSPSSLSASVGDRVTITCRASQSVSSAVAWYQQKPGKAPKLLIYSASSLYSGVPSRFSGSRSGTDFTLTISSLQPEDFATYYCQQYYWPITFGQGTKVEIKLEDKTHTKVEPKTSDKTHTCPPCPAPELLGGPSVFLFPPKPKDTLMISRTPEVTCVVVDVSHEDPEVKFNWYVDGVEVHNAKTKPREEQYNSTYRVVSVLTVLHQDWLNGKEYKCKVSNKALPAPIEKTISKAKGQPREPMVFDLPPSREEMTKNQVSLWCMVKGFYPSDIAVEWESNGQPENNYKTTPPVLDSDGSFFLYSKLTVDKSRWQQGNVFSCSVMHEALHNHYTQKSLSLSPGKSGSETPGTSESATPESGGGEVQLVESGGGLVQPGGSLRLSCAASGFNIHSSSIHWVRQAPGKGLEWVAATYSSFGSITYADSVKGRFTISADTSKNTAYLQMNSLRAEDTAVYYCARYHHPFGYALDYWGQGTLVTVSSASTKGPSVFPLAPSSKSTSGGTAALGCLVKDYFPEPVTVSWNSGALTSGVHTFPAVLQSSGLYSLSSVVTVPSSSLGTQTYICNVNHKPSNTKVDKKVEPKSCDKTHT
light: DIQMTQSPSSLSASVGDRVTITCRASQSVSSAVAWYQQKPGKAPKLLIYSASSLYSGVPSRFSGSRSGTDFTLTISSLQPEDFATYYCQQGVYLFTFGQGTKVEIKRTVAAPSVFIFPPSDEQLKSGTASVVCLLNNFYPREAKVQWKVDNALQSGNSQESVTEQDSKDSTYSLSSTLTLSKADYEKHKVYACEVTHQGLSSPVTKSFNRGEC
B1 displayed a TOPFLASH % Wnt Maxima of 49 % Wnt Maxima, a TOPFLASH EC50 of 0.7 nM and a TOPFLASH Maximal Signal (% Wnt3a maxima) (% Wnt3a maxima) of 50.
